Experiment: yeast display, Sf9 membrane polyspecificity reagent, FACS + sequencing; frameworks hold sequencing errors
Outline: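 Polyreactivity labels are assigned by the sorting gate from which each nanobody was recovered. The gates were low and high (top ~1%), set on anti-HA fluorescence for expression and streptavidin fluorescence for reagent binding. Before sorting, galactose-induced (36–48 hours) yeast display cells were stained for 1 hour at 4 °C with 10% biotinylated, detergent-solubilized Sf9 membrane reagent.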

| Sequence | polyreactivity (PSR sort gate) |
| --- | --- |
| QVQLVESGGGLVQAGGSLRLSCAASGLIFARNAMGWYRQAPGKERELVAAITRRGTSTYYADSVKGRFTISRDNAKNTVYLQMNSLKPEDTAVYYCAARGGGGQRYDYWGQGTQVTVSS | high polyreactivity |
| QVQLVESGGGLVQAGGSLRLSCAASGSTFGLNAMGWYRQAPGKERELVAAITWSGASTYYADSVKGRFTISRDNAKNTVYLQMNSLKPEDTAVYYCAKDIPTDYKDVNYWGQGTQVTVSS | low polyreactivity |
| QVQLVESGGWLVQAGGSLRLSCAASGFIFYRYAMGWYRPAPGKERELDAAISGSGGRTYYADSVKGRFTISRDNAKNTVYLQMNSLKPEDTAVYYCAADKQAYVTDDYWGQGTQVTVSS | high polyreactivity |
| QVQLVESGGGLDQAGGSLRLSCAASGFIFITYEMGWYRQAPGKQMELVAVITSGGTTNYADSVKGRFTISRDNAKNTVYLQMNSLKPEDTAVYYCAAEDYVIGDSGYDYWGQGTQVTVSS | low polyreactivity |
| QVHLLESGGGLVQAGGSLRLSCAASGRTLSRYTMGWYRQAPGKERELVAAISTSGSTYYADSVKGRFTISRDNAKNTVYLPMNCLKPEDTAVYYCAATHWAYSRVPYDYWGQGTQVTVSS | high polyreactivity |
| QVQLVESGGGLVQAGGSLRLSCADSGLIFQYYVMVWYRQAQGKERELVAAISARGGGTYYADSVKGRFTISRDNAKNTVYLPMNSLKPEVTAVYYCAAHQVYAGPGYDYWGQGTQVTVSS | high polyreactivity |
| QFQLVESGGGLVQAGGSLRLSCAASGRIFYYYAMGWYRQAPGKERELVAAITRGGSTYADSVKGRFTISRDNAKNTVYLQMNSLKPEDTAVYYCAATYWYWDFRWMDYWGQGTQVTVSS | high polyreactivity |
| QVQLVESGGGLVQAGGSLRLSCAASGYIFAGNAMGWYRQAPGKERELVAVITRGGRTYYADSVKGRFTISRDNAKNTVYLQMNSLKPEDTAVYYCAKLVSLAGRIYGYWGQGTQVTVSS | high polyreactivity |
| QVQLVESGGGLVQAGGSLRLSCAASGRIFSRYAMGWYRQAPGKERELVAAISRAASTNYADSVKGRFTISRDNAKNTVYLQMNSLKPEDTAVYYCNKRLYGYYGRYDYWGQGTQVTVSS | low polyreactivity |
| QVQLVESGGGLVQAGGSLRLSCAASGSIFRAYAMGWYRQAPGKERELVATISGSGGSTDYADSVKGRFTISRDTAKNTVYLQMNSLKPEDTAVYYCARDDPASHKRYWHDYWGQGTQVTVSS | low polyreactivity |
| QVQLVESGGGLVQAGGSLRLSCAASGYIFNVYAMGWYRQAPGKESELVAAISTSGGSTYYADSVKGRFSISRDNAKNTVYLQMNSLKPEDTAVYYCAAKSTLSRSHKSDYWGQGTQVTVSS | high polyreactivity |
| QVQLVESGGGLVQAGGSLRLSCAASGFTSSNNAMGWYRQAPGKERELFAAISSSGGRTYYADSVKGRFTISRDNAKNTVYLQMNSLQPEDTAVYFCAATGYVGGIYGHYPRGYWGQGTQVTVSS | high polyreactivity |
| QVQLVESGGGLVQAGGSLRLSCAASGLTFRLNAMGWYRQAPGKERELVAAITRGGRTNYADSVKGRFTISRDNAKNTVYLQMNSLKPEDTAVYYCAARYVERHTDYYYWGQGTQVTVSS | low polyreactivity |
| QVQLVESGGGLVQAGGSLRLSCAASGSILVLNDMGWYRQAPGKERELVATITSGGNTYYADSVKGRFTISRDNAKNTVYLQMNSLKPEDTAVYYCNARWQRPYDYWGQGTQVTVSS | low polyreactivity |
| QVQLVDSGGGLVQAGGSLRLICPASGSIFSTYAMGWYRQAPGKERELLAAINRGTSTNYADSVKGRFTISRDNAKNTVYLQMNCLKPEDTAVYYCAAYYRGRYGPRRSEYWGQGTQVTVSS | high polyreactivity |
| QVQLVESGGGLVQAGGSLRLSCAASGSTFRRNAMGWYRQAPGKERELVAAITRRGGTYYADSVKGRFTISRDNAKNTVYLQMNSLKPEDTAVYYCAADRSYYDWRYGGFDYWGQGTQVTVSS | high polyreactivity |
| QVQLVESGGGLVQAGGSLRLSCAASGSNFGRYAMGWYRQAPGKESELVAAINDDSGRTYYADTVKGRFTISRDNAKNTVYLQMNSLKPEDTAVYYCAAYRISQGYSTYNYWGQGTQVTVSS | high polyreactivity |
| QVQLVESGGGLVQARGSLRLSCAASGSIFYGNAMGWYRQAHGKERELVAAISQSGGSTYYADSVKGRFTISRDNAKNTVYLQMNSLKPEDTAVYYCAAYTPYATWRYDYWGQGTQVTVSS | low polyreactivity |
| HVQLVESGGGLVQAGGSLRLSCAASGRTFPYYAMGWYRQAPGKERELVAGITSNAGSTYYADSVKGRFTISRDNAKNTVYLLMNSLKPEDTAVYYCAKTKAGRWTTFKFGYWGQGTQVTVSS | high polyreactivity |
| QDQLVQSGLGLVQAGGSLRLSCAASGITFYWYTIAWYRQATGKERELVAAISRRGGSTSYADSVKGRFTISRDNAKNTVYLQMNSLKPEDTAVYYCAKTPGWTDYDYWGQGTQVTVSS | high polyreactivity |
| QVQLVESGGGLVQAGGSLRLSCAASGFTFWYYAMGWYRQAPGKERELVATISRGGGSTYYADSVKGRFTISRDNAKNTVYLQMNSLKPEDTEVYYCNAVRVHAYSTGEYGYWGQGTQVTVSS | high polyreactivity |
| QVQLVESCGGLDQAGGSLRLTCAASGINFWYNTMGWYRQAPRKERELVAAITYGGGSTYYADSVKGRFTISRDNAKNSVYLQMYSMKPVDTAVYYCAVRNWHLIKYLHGYSRYGYWGQGTQVTVSS | low polyreactivity |

| Sequence | polyreactivity (PSR sort gate) |
| --- | --- |
| QVQLVESGGGIVQAGGSLRLSCAASGSIFADYAMGWYRQAPGKERELVAVISRRGGTTYYADSVKGRFTISRDNAKNSVYLQMNSLKPEDTAVYYCAARRSFNEYDYWGQGTQVTVSS | high polyreactivity |
| QVQLVESGGGLVQAGGSLRLSCAASGFTFTSYTMGWYRQAPGKERELVAGISTNGGTTYYADSVKGRFTISRDNAKNTVYLQMNSLKPEDTAVYYCNAKRKYGRFPKKYYYWGQGTQVTVSS | high polyreactivity |
| QVQLQESGGGLVQVGVSQRLSCAASGNIFYNYAMGWYRHAQGKEREFDATINHCTSINYADSVKGLFTISRDNAKKTVYLQMNSLKPEDTAVYYCAADLSWTDNLFYWGQGTQVTVSS | low polyreactivity |
| QVQLVESGGGLVQAGGSLRLSCAASGRTFDSNAMGWYRQAPGKERELVAGISESGGSTYYADSVKGRFTISRDNAKNTVYLQMNSLKPEDTAVYYCAYSGITVYYHRAVDFIVSYDYWGQGTQVTVSS | low polyreactivity |
| QVQLVESGGGLVQAGGSLRLSCAASGRIFSYNTMGWYRQAPGKERELVAAISWSGGSTSYADSVKGRFTISRDNAKNTVYLQMNSLKPEDTAVYYCATGSKRNPFYRGNYWGQGTQVTVSS | low polyreactivity |
| QVQLVESRGGLVQAGGSLGLSCAASGPTFFYNAMGWYRQAPGKERELVAAISSGGGSTYYADSVKGRFTISRDNAKNTVYLQMNSLKPEDTAVYYCAGASYRQPGYGYWGQGTLVTVSS | high polyreactivity |
| QVQLVESGGGLVQAGGSLRLICAASGLTFYVNAMGWYRQAPGKERELVADISSGVSTNYADSVKGRFTISRDNAKNTVYLQMNSLKPEDTAVYYCNVERYKKLSRTHNYRRYNYWGQGTQVTVSS | high polyreactivity |
| QVQLVESGGGLVQAGGSLRLSCAASGSTFGVNAMGWYRQAPGKERELVATISRGTSTNYADSVKGRFTISRDNAKNTVYLQINSLKPEDTAVYYCAKRVFYPGAYRYYYWGQGTQVTVSS | high polyreactivity |
| QVQLVESGGGLVQAGGSLRLSCAASGRTLRGNAMGWYRQAPGKERELVAGITSGGSTNYADSVKGRFTISRDNAKNTVYLQMNSLKPEDTAVYYCAAAYYLSFGRYYTNYDYWGQGTQVTVSS | high polyreactivity |
| QVQLVESGGGLVQAGGSLRLSCAASGSIFDPYAMGWYRQAPGKEREFVAAISWSGGSTYYADSVKGRFTISRDNAKNTVYLQMNSLIPEDTAVYYCAAGTQWYSQVYIYYYWGQGTQVTVSS | low polyreactivity |
| QVQLVESGGGLVQAGGSLRLSCAASGITFNTYAMGWYRQAPGKERELVAVITWSDGGTYYADSVKGRFTISRDNAKNTVYLQMNSLKPEDTAVYYCAADYYWGYDYWGQGTQVTVSS | low polyreactivity |
| QVQLVESGGGLVQAGGSLRLSCAASGRIFGRNAMGWYRQAPGKERELVASITSGGGTNYADSVKGRFTISRDNAKNTVYLQMNSLKPEDTAVYYCAAKRHLEGYSGSIGRYYYWGQGTQVTVSS | low polyreactivity |
| QVQLVESGGGLVQAGGSLRLSCAASGNIFSYYAMGWYRQAPGKERELVAAIYTGGSTYYADSVKGRFTISRDNAKNTVYLQMNSLKPEDTEVYYCAASGLNLRQDYDYWGQGTQVTVSS | low polyreactivity |
| QVQLVESGGGLVQAGGSLRLSCAASGRIFYPYAMGWYRQAPGKERELVAAIDWTAGGTYYADSVKGRFTISRDNAKNTVYLQMNSLKPEDTAVYYCAAEYYIEANGDYWGLGTQVTVSS | low polyreactivity |
| QVQLVESGGGLVQAGGSLRLSSAPSGNTFYWYVMGWYRHAPGKERELVARINSSGGTTNYADSVKGRFTISRDNAKNTVYFQMNSLKPEVTAVYYCAADDIYLYGGGTDYYFCGQGTQVTVSS | low polyreactivity |
| QVQLEESGGGLVQAGGSLRLSCAASGLNIAVYTMGWYRQAPGKERELVAAITRRSTRTYYADSVKGRFTISRDNALISVFLQMNSLKPEDTAVYYCAADRVSSGAAFEFWGQGTQVTVSS | low polyreactivity |
| QVQLVESGGGLVQAGGSLRLSCAASGRTFRFYVMGWYRQAPGKERELVAVIRYRGGSTYYADSVKGRFTISRDNAKNTVYLHMNSLTPEDTAVYYCNADFLLAGNEYDYWGQGTQVTVSS | high polyreactivity |
| QVQLVESGGGLVQAGGTLRLICAASGSIFGYYTMGWYRQASGKERELVAAITSGGSTNYADSVKGRFTISRDNAKNTVYLQMNSLKPEDTAVYYCATVSYYPWRYDYWGQGTQGTVSS | low polyreactivity |
| QVQLVESGGGLVQAGGSLRLSSAASGITFRYYTMGWYRQAPGKERELVAAITWSGGSTYYADSVKGRFTISRDNAKNTVYLQMNSLKPEDTAVYYGAADSYRFRYSGYDYWGQGTQVTVSS | high polyreactivity |
| QVQLVESGGGLVQAGGSLRLSCAASGFTFITNAMGWYRQAPGKERELVASISIGGSTNYADSVKGRFTISRDNAKNTVYLQMNSLKPEDTAVYYCAARVYRRLFLPGRYGRPLGYWGQGTQVTVSS | high polyreactivity |
| QVDLVESGGGLVQAGGSLRLSCAASGRTFQFNGMGWYRQAPVKERELVAGITSGGSTYYADSVKGRFTISRDNAKTTVYLQMISLKPEDTAVYYCAKDDPYFRGSPYFGRYPYGYWGQGTEVTVSS | high polyreactivity |
